Tests used:
[1] = Stability of linkers L1-L4 conjugated to FGF21 (LC-MS); format: physicochemical; conditions: linker conjugated to FGF21ΔH-A129C
Description: The following experiment was performed to investigate the chemical stability over 2 weeks of the four linkers upon conjugation to FGF21: each linker was conjugated to FGF21, placed at +4° C. storage conditions, and aliquots were removed and quenched by freezing at specific time points, and linker stability was monitored by LCMS analysis.
The four linkers were dissolved in DMSO from lyophilized stock material. […] L1 was reacted with protein for 30 mins; L2, L3 and L4 were reacted for 2 hrs. The conjugation reaction was quenched by removal of excess linkers through size-exclusion resin. Conjugated FGF21ΔH-A129C protein was placed at +4° C. for stability storage. […] Analysis of linker stability was performed by LC-MS analysis to determine the relative amount of unconjugated protein, protein+linker conjugation, and single and double hydrolysis events of the conjugated protein+linker.
Linker hydrolysis is the critical analytical variable in this experiment. Hydrolysis was monitored by observing the subsequent addition of H2O to the FGF21-linker complex. A single addition of H2O, +(1) H2O, likely indicates the hydrolysis of the active AZD group that is present on all 4 linkers. The addition of a second H2O molecule, +(2) H2O, is a strong indicator of hydrolysis (eg—chemical instability) in the linker. L1 is particularly susceptible because of the presence of a maleimide functional group.

[2] = Hydrolysis of the reactive group of [SEQ ID NO:10-L1] over time; format: physicochemical; conditions: 4° C., FGF21 RP chromatography
Description: Fine Tune of Conjugation Conditions for FGF21-Linker: The laboratory scale-ups were performed at different scales with a variety of optimized buffers and pHs. […] Since hydrolysis of reactive group of SEQ ID NO:10-L1 occurs over time (Table 27), post activation diafiltration of SEQ ID NO:10-L1 should be operated at between about 2 and about 10° C. The amount of SEQ ID NO:10-L1 after post activation diafiltration varied in different experiments, and the difference could contribute to the variation of the conjugation efficiency for h38C2-[SEQ ID NO:10-L1]1. About 100 mM Phosphate pH about 6.3 gave the least aggregates and highest h38C2 remaining for recycle purpose.
The above sample was further passed through the UFDF to remove excess linker and TCEP. The membrane was sanitized with 1N NaOH for 30 min, drained, and equilibrated with 100 mM MES, pH 7.0. Buffer 100 mM MES, pH 7.0 was used for diafilteration (7× diafilteration). Diafiltration was done at 4 g/L retentate concentration. Foaming and splashing may be avoided during UF/DF. Hydrolysis of the reactive group of [SEQ ID NO:10-L1] occurred over the diafiltration process. The hold time for post-activation DF pool should be minimized. UF may be operated at 2-10° C. using 10K Sartorius Hydrosart membrane. The combined species [SEQ ID NO:10-L1] confirmed by FGF21 RP was down from 73% to 64% after UF/DF.

[3] = +4° C. storage, LC-MS, of total measured protein, 0 hrs

CC1=CC(=O)N(CC2CCC(C(=O)NCCOCCOCCC(=O)Nc3ccc(CCC(=O)N4CCC4=O)cc3)CC2)C1=O (centres unmarked) [Compound L4]
0 linker (unconjugated protein) [1, 3]: 20%
1 linker (protein+linker conjugation) ([1]; +4° C., 0 hrs): 46%
+(1) H2O (single hydrolysis) ([1]; +4° C., 0 hrs): 28%
+(2) H2O (double hydrolysis) ([1]; +4° C., 0 hrs): 6%
0 linker (unconjugated protein) ([1]; +4° C., 24 hrs): 20%
1 linker (protein+linker conjugation) ([1]; +4° C., 24 hrs): 46%
+(1) H2O (single hydrolysis) ([1]; +4° C., 24 hrs): 27%
+(2) H2O (double hydrolysis) ([1]; +4° C., 24 hrs): 7%
0 linker (unconjugated protein) ([1]; +4° C., 72 hrs): 21%
1 linker (protein+linker conjugation) ([1]; +4° C., 72 hrs): 42%
+(1) H2O (single hydrolysis) ([1]; +4° C., 72 hrs): 30%
+(2) H2O (double hydrolysis) ([1]; +4° C., 72 hrs): 7%
0 linker (unconjugated protein) ([1]; +4° C., 168 hrs): 21%
1 linker (protein+linker conjugation) ([1]; +4° C., 168 hrs): 41%
+(1) H2O (single hydrolysis) ([1]; +4° C., 168 hrs): 32%
+(2) H2O (double hydrolysis) ([1]; +4° C., 168 hrs): 6%
0 linker (unconjugated protein) ([1]; +4° C., 336 hrs): 22%
1 linker (protein+linker conjugation) ([1]; +4° C., 336 hrs): 41%
+(1) H2O (single hydrolysis) ([1]; +4° C., 336 hrs): 31%
+(2) H2O (double hydrolysis) ([1]; +4° C., 336 hrs (2 weeks)): 6%

CC1=CC(=O)N(CCC(=O)NCCOCCOCCC(=O)Nc2ccc(CCC(=O)N3CCC3=O)cc2)C1=O [Compound L2]
0 linker (unconjugated protein) [1, 3]: 22%
1 linker (protein+linker conjugation) ([1]; +4° C., 0 hrs): 45%
+(1) H2O (single hydrolysis) ([1]; +4° C., 0 hrs): 27%
+(2) H2O (double hydrolysis) ([1]; +4° C., 0 hrs): 6%
0 linker (unconjugated protein) ([1]; +4° C., 24 hrs): 23%
1 linker (protein+linker conjugation) ([1]; +4° C., 24 hrs): 43%
+(1) H2O (single hydrolysis) ([1]; +4° C., 24 hrs): 26%
+(2) H2O (double hydrolysis) ([1]; +4° C., 24 hrs): 8%
0 linker (unconjugated protein) ([1]; +4° C., 72 hrs): 24%
1 linker (protein+linker conjugation) ([1]; +4° C., 72 hrs): 37%
+(1) H2O (single hydrolysis) ([1]; +4° C., 72 hrs): 32%
+(2) H2O (double hydrolysis) ([1]; +4° C., 72 hrs): 8%
0 linker (unconjugated protein) ([1]; +4° C., 168 hrs): 24%
1 linker (protein+linker conjugation) ([1]; +4° C., 168 hrs): 40%
+(1) H2O (single hydrolysis) ([1]; +4° C., 168 hrs): 29%
+(2) H2O (double hydrolysis) ([1]; +4° C., 168 hrs): 7%
0 linker (unconjugated protein) ([1]; +4° C., 336 hrs): 26%
1 linker (protein+linker conjugation) ([1]; +4° C., 336 hrs): 38%
+(1) H2O (single hydrolysis) ([1]; +4° C., 336 hrs): 28%
+(2) H2O (double hydrolysis) ([1]; +4° C., 336 hrs (2 weeks)): 8%

CC1=CC(=O)N(CCOCCOCCC(=O)Nc2ccc(CCC(=O)N3CCC3=O)cc2)C1=O [Compound L3]
0 linker (unconjugated protein) [1, 3]: 19%
1 linker (protein+linker conjugation) ([1]; +4° C., 0 hrs): 45%
+(1) H2O (single hydrolysis) ([1]; +4° C., 0 hrs): 30%
+(2) H2O (double hydrolysis) ([1]; +4° C., 0 hrs): 6%
0 linker (unconjugated protein) ([1]; +4° C., 24 hrs): 18%
1 linker (protein+linker conjugation) ([1]; +4° C., 24 hrs): 47%
+(1) H2O (single hydrolysis) ([1]; +4° C., 24 hrs): 27%
+(2) H2O (double hydrolysis) ([1]; +4° C., 24 hrs): 8%
0 linker (unconjugated protein) ([1]; +4° C., 72 hrs): 19%
1 linker (protein+linker conjugation) ([1]; +4° C., 72 hrs): 43%
+(1) H2O (single hydrolysis) ([1]; +4° C., 72 hrs): 30%
+(2) H2O (double hydrolysis) ([1]; +4° C., 72 hrs): 8%
0 linker (unconjugated protein) ([1]; +4° C., 168 hrs): 19%
1 linker (protein+linker conjugation) ([1]; +4° C., 168 hrs): 43%
+(1) H2O (single hydrolysis) ([1]; +4° C., 168 hrs): 29%
+(2) H2O (double hydrolysis) ([1]; +4° C., 168 hrs): 8%
0 linker (unconjugated protein) ([1]; +4° C., 336 hrs): 20%
1 linker (protein+linker conjugation) ([1]; +4° C., 336 hrs): 43%
+(1) H2O (single hydrolysis) ([1]; +4° C., 336 hrs): 29%
+(2) H2O (double hydrolysis) ([1]; +4° C., 336 hrs (2 weeks)): 8%

O=C(CCN1C(=O)C=CC1=O)NCCOCCOCCC(=O)Nc1ccc(CCC(=O)N2CCC2=O)cc1 [Compound L1, 3-(2,5-dioxo-2,5-dihydro-1H-pyrrol-1-yl)-N-(2-(2-(3-oxo-3-(4-(3-oxo-3-(2-oxoazetidin-1-yl)propyl)phenylamino)propoxy)ethoxy)ethyl)propanamide]
0 linker (unconjugated protein) [1, 3]: 13%
1 linker (protein+linker conjugation) ([1]; +4° C., 0 hrs): 49%
+(1) H2O (single hydrolysis) ([1]; +4° C., 0 hrs): 30%
+(2) H2O (double hydrolysis) ([1]; +4° C., 0 hrs): 8%
0 linker (unconjugated protein) ([1]; +4° C., 24 hrs): 14%
1 linker (protein+linker conjugation) ([1]; +4° C., 24 hrs): 41%
+(1) H2O (single hydrolysis) ([1]; +4° C., 24 hrs): 34%
+(2) H2O (double hydrolysis) ([1]; +4° C., 24 hrs): 11%
0 linker (unconjugated protein) ([1]; +4° C., 72 hrs): 14%
1 linker (protein+linker conjugation) ([1]; +4° C., 72 hrs): 40%
+(1) H2O (single hydrolysis) ([1]; +4° C., 72 hrs): 35%
+(2) H2O (double hydrolysis) ([1]; +4° C., 72 hrs): 11%
0 linker (unconjugated protein) ([1]; +4° C., 168 hrs): 10%
1 linker (protein+linker conjugation) ([1]; +4° C., 168 hrs): 33%
+(1) H2O (single hydrolysis) ([1]; +4° C., 168 hrs): 40%
+(2) H2O (double hydrolysis) ([1]; +4° C., 168 hrs): 18%
0 linker (unconjugated protein) ([1]; +4° C., 336 hrs): 12%
1 linker (protein+linker conjugation) ([1]; +4° C., 336 hrs): 28%
+(1) H2O (single hydrolysis) ([1]; +4° C., 336 hrs): 41%
+(2) H2O (double hydrolysis) ([1]; +4° C., 336 hrs (2 weeks)): 18%

B1: [SEQ ID NO: 10-L1] (protein, listed as Homo sapiens)
chain: PIPDSSPLLQFGGQVRQRYLYTDDAQQTEAHLEIREDGTVGGAADQSPESLLQLKALKPGVIQILGVKTSRFLCQRPDGALYGSLHFDPEACSFRELLLEDGYNVYQSEAHGLPLHLPGNKSPHRDPCPRGPARFLPLPGLPPALPEPPGILAPQPPDVGSSDPLSMVGPSQGRSPSYAS
modifications: L1 linker attached
% FGF21 ([2]; 0 hour): 13.4%
% FGF21 dimer ([2]; 0 hour): 1.8%
% Hydrolyzed reactive FGF21ΔH-A129C-L1 ([2]; 0 hour): 6.5%
% Other ([2]; 0 hour): 1.6%
% reactive FGF21ΔH-A129C-L1 ([2]; 0 hour): 76.7%
% FGF21 ([2]; 1 hour): 13.2%
% FGF21 dimer ([2]; 1 hour): 2.8%
% Hydrolyzed reactive FGF21ΔH-A129C-L1 ([2]; 1 hour): 8.8%
% Other ([2]; 1 hour): 1.6%
% reactive FGF21ΔH-A129C-L1 ([2]; 1 hour): 73.6%
% FGF21 ([2]; 2 hrs): 14.4%
% FGF21 dimer ([2]; 2 hrs): 4.0%
% Hydrolyzed reactive FGF21ΔH-A129C-L1 ([2]; 2 hrs): 10.6%
% Other ([2]; 2 hrs): 1.9%
% reactive FGF21ΔH-A129C-L1 ([2]; 2 hrs): 69.1%
% FGF21 ([2]; 3 hrs): 13.3%
% FGF21 dimer ([2]; 3 hrs): 4.1%
% Hydrolyzed reactive FGF21ΔH-A129C-L1 ([2]; 3 hrs): 13.6%
% Other ([2]; 3 hrs): 1.9%
% reactive FGF21ΔH-A129C-L1 ([2]; 3 hrs): 67.1%
% FGF21 ([2]; 4 hrs): 13.9%
% FGF21 dimer ([2]; 4 hrs): 4.5%
% Hydrolyzed reactive FGF21ΔH-A129C-L1 ([2]; 4 hrs): 14.9%
% Other ([2]; 4 hrs): 1.8%
% reactive FGF21ΔH-A129C-L1 ([2]; 4 hrs): 64.9%
% FGF21 ([2]; 5 hrs): 14.3%
% FGF21 dimer ([2]; 5 hrs): 5.0%
% Hydrolyzed reactive FGF21ΔH-A129C-L1 ([2]; 5 hrs): 16.9%
% Other ([2]; 5 hrs): 1.9%
% reactive FGF21ΔH-A129C-L1 ([2]; 5 hrs): 61.9%
% FGF21 ([2]; 6 hrs): 13.9%
% FGF21 dimer ([2]; 6 hrs): 5.2%
% Hydrolyzed reactive FGF21ΔH-A129C-L1 ([2]; 6 hrs): 18.8%
% Other ([2]; 6 hrs): 1.8%
% reactive FGF21ΔH-A129C-L1 ([2]; 6 hrs): 60.3%
% FGF21 ([2]; 8 hrs): 14.5%
% FGF21 dimer ([2]; 8 hrs): 5.7%
% Hydrolyzed reactive FGF21ΔH-A129C-L1 ([2]; 8 hrs): 22.3%
% Other ([2]; 8 hrs): 1.7%
% reactive FGF21ΔH-A129C-L1 ([2]; 8 hrs): 55.8%
% FGF21 ([2]; 10 hrs): 15.0%
% FGF21 dimer ([2]; 10 hrs): 5.9%
% Hydrolyzed reactive FGF21ΔH-A129C-L1 ([2]; 10 hrs): 25.0%
% Other ([2]; 10 hrs): 1.8%
% reactive FGF21ΔH-A129C-L1 ([2]; 10 hrs): 52.3%

Source: patent publication US9163227B2, “Anti-diabetic compounds” (PFIZER INC., priority 2011, dated 2015)
